Source: publication PMC9482650, “Quantitative fragmentomics allow affinity mapping of interactomes” (Nature Communications, 2022)

Experiments:
Test in all cases: holdup assay
Parameters in all cases: key: below the threshold = too weak to quantify, mostly under pKd 3.1 to 4
Conditions in all cases: plain residues with an end cap or a label only (N-terminal biotin on a linker: ado-ado)
LIMK2, P53671 = target: LIMK2, P53671
Inadl_6, Q8NI35 = target: Inadl_6, Q8NI35
SNTG2, Q9NY99 = target: T1, SNTG2, Q9NY99
T1 sequence (Q9NY99 68-166, limits assumed, looked up): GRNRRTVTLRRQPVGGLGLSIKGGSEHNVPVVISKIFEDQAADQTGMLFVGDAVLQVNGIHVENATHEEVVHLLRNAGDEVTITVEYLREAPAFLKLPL

IL16_3, Q14005 = target: IL16_3, Q14005
Sequence of IL16_3, Q14005 (Q14005 1107-1207): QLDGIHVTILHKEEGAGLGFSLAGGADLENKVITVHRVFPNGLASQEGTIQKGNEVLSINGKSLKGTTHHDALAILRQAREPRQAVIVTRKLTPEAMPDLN

LNX1_1, Q8TBB1 = target: LNX1_1, Q8TBB1
Sequence of LNX1_1, Q8TBB1 (Q8TBB1 261-371): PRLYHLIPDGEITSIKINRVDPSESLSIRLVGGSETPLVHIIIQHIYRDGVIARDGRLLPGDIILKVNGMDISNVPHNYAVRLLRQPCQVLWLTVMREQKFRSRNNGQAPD

NHERF3_4, Q5T2W1 = target: T2, NHERF3_4, Q5T2W1
T2 sequence (Q5T2W1 373-468, limits assumed, looked up): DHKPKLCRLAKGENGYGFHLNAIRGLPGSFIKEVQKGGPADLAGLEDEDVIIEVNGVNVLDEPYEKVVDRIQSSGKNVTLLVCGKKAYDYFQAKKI

PARD3_3, Q8TEW0 = target: PARD3_3, Q8TEW0
Sequence of PARD3_3, Q8TEW0 (Q8TEW0 582-685): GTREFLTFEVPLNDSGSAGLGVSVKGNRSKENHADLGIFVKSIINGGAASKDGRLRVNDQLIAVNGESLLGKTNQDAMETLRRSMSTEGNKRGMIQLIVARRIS

GOPC, Q9HD26 = target: GOPC, Q9HD26
PARD3B_1, Q8TEW8 = target: T3, PARD3B_1, Q8TEW8
T3 sequence (Q8TEW8 196-299, limits assumed, looked up): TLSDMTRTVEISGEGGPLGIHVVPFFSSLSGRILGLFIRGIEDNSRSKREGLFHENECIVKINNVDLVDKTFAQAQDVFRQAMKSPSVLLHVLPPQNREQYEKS

DLG3_1, Q92796 = target: T4, DLG3_1, Q92796
T4 sequence (Q92796 125-227, limits assumed, looked up): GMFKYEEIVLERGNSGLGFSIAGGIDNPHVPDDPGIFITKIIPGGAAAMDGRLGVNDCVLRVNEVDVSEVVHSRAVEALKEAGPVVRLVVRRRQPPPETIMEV

DLG3_2, Q92796 = target: T5, DLG3_2, Q92796
T5 sequence (Q92796 221-321, limits assumed, looked up): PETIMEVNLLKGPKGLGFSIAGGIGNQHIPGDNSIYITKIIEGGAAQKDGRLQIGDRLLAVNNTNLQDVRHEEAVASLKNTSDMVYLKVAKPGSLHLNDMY

MAST1, Q9Y2H9 = target: MAST1, Q9Y2H9
Sequence of MAST1, Q9Y2H9 (Q9Y2H9 962-1065): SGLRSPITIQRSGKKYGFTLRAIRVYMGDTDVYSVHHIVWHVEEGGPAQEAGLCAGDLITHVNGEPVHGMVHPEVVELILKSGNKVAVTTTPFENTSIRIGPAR

SCRIB_2, Q14160 = target: SCRIB_2, Q14160
Sequence of SCRIB_2, Q14160 (Q14160 857-960): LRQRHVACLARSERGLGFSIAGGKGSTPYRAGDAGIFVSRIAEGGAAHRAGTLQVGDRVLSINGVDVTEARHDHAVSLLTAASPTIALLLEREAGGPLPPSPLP

RHPN1, Q8TCX5 = target: T6, RHPN1, Q8TCX5
T6 sequence (Q8TCX5 508-602, limits assumed, looked up): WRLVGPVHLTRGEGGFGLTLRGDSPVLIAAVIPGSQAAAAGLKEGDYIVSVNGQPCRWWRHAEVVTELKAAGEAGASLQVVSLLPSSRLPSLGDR

SHANK1, Q9Y566 = target: T7, SHANK1, Q9Y566
T7 sequence (Q9Y566 658-767, limits assumed, looked up): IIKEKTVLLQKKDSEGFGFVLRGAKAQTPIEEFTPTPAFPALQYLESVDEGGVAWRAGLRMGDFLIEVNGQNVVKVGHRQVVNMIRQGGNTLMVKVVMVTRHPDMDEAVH

APBA2_1, Q99767 = target: T8, APBA2_1, Q99767
T8 sequence (Q99767 563-664, limits assumed, looked up): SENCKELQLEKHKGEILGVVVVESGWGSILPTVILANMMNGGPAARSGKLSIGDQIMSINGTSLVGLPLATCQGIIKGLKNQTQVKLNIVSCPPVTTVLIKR

GRID2IP_2, A4D2P6 = target: GRID2IP_2, A4D2P6
Sequence of GRID2IP_2, A4D2P6 (A4D2P6 272-370): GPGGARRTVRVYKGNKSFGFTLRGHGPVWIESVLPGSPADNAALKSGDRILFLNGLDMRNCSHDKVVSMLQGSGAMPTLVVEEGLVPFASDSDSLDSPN

GORASP2, Q9H8Y8 = target: GORASP2, Q9H8Y8
TJP1_2, Q07157 = target: TJP1_2, Q07157
Sequence of TJP1_2, Q07157 (Q07157 181-274): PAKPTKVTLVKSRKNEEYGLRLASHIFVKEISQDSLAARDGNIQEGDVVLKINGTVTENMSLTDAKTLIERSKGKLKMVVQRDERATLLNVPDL

MAST2, Q6P0Q8 = target: MAST2, Q6P0Q8
Sequence of MAST2, Q6P0Q8 (Q6P0Q8 1099-1202): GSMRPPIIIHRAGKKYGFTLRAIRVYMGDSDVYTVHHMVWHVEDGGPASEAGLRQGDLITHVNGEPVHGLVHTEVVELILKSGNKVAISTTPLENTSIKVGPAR

LNX1_2, Q8TBB1 = target: LNX1_2, Q8TBB1
Sequence of LNX1_2, Q8TBB1 (Q8TBB1 371-470): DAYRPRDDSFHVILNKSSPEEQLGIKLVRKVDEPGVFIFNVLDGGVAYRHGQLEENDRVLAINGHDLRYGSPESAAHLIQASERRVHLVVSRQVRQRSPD

SCRIB_1, Q14160 = target: SCRIB_1, Q14160
Sequence of SCRIB_1, Q14160 (Q14160 718-814): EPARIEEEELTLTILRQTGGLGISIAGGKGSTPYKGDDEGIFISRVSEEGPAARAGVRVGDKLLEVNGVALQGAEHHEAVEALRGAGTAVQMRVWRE

Inadl_8, Q8NI35 = target: Inadl_8, Q8NI35
Sequence of Inadl_8, Q8NI35 (Q8NI35 1425-1530): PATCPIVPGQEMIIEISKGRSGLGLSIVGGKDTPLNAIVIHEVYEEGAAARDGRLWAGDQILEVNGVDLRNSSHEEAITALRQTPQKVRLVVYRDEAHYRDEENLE

FRMPD2_1, Q68DX3 = target: FRMPD2_1, Q68DX3
Sequence of FRMPD2_1, Q68DX3 (Q68DX3 770-861): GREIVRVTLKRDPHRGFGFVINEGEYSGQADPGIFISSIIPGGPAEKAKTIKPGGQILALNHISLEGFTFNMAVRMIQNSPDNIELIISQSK

GRIP2_4, Q9C0E4 = target: GRIP2_4, Q9C0E4
Sequence of GRIP2_4, Q9C0E4 (Q9C0E4 446-548): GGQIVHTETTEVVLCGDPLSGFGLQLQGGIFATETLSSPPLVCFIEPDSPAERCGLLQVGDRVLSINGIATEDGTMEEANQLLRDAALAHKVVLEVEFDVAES

DVL3, Q92997 = target: T9, DVL3, Q92997
T9 sequence (Q92997 244-331, limits assumed, looked up): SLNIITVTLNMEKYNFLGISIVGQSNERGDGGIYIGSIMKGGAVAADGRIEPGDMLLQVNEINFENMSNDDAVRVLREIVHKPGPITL

MPDZ_12, O75970 = target: T10, MPDZ_12, O75970
T10 sequence (O75970 1857-1958, limits assumed, looked up): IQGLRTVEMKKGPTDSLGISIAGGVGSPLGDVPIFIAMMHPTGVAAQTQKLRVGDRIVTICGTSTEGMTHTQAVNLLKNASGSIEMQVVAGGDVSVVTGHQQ

Sequence of LIMK2, P53671 (P53671 143-248): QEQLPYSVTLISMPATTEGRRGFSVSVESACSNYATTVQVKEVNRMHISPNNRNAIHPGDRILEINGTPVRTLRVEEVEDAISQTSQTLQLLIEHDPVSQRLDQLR
Sequence of Inadl_6, Q8NI35 (Q8NI35 1058-1167): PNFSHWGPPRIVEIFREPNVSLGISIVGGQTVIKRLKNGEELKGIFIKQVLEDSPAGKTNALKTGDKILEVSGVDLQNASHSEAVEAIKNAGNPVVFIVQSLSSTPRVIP

Binder	pKd (LIMK2, P53671)	pKd (Inadl_6, Q8NI35)	pKd (SNTG2, Q9NY99)	pKd (IL16_3, Q14005)	pKd (LNX1_1, Q8TBB1)	pKd (NHERF3_4, Q5T2W1)	pKd (PARD3_3, Q8TEW0)	pKd (GOPC, Q9HD26)	pKd (PARD3B_1, Q8TEW8)	pKd (DLG3_1, Q92796)	pKd (DLG3_2, Q92796)	pKd (MAST1, Q9Y2H9)	pKd (SCRIB_2, Q14160)	pKd (RHPN1, Q8TCX5)	pKd (SHANK1, Q9Y566)	pKd (APBA2_1, Q99767)	pKd (GRID2IP_2, A4D2P6)	pKd (GORASP2, Q9H8Y8)	pKd (TJP1_2, Q07157)	pKd (MAST2, Q6P0Q8)	other results
GQETPLNTFC [MAP7D2, Q96T17]	below the threshold	below the threshold	3.7	below the threshold	below the threshold	below the threshold	below the threshold	below the threshold	below the threshold	below the threshold	3.93	3.79	below the threshold	below the threshold	below the threshold	below the threshold	3.88	below the threshold	below the threshold	4.21	pKd (LNX1_2, Q8TBB1): below the threshold; pKd (SCRIB_1, Q14160): 3.88; pKd (Inadl_8, Q8NI35): below the threshold; pKd (FRMPD2_1, Q68DX3): below the threshold; pKd (GRIP2_4, Q9C0E4): below the threshold; pKd (DVL3, Q92997): below the threshold; pKd (MPDZ_12, O75970): below the threshold
QYPGSPDSWV [PKP4, Q99569]	below the threshold	4.21	3.62	3.55	3.98	below the threshold	3.85	below the threshold	3.56	3.97	4.13	3.97	4.82	4.26	below the threshold	below the threshold	below the threshold	4.39	3.76	4.09	pKd (LNX1_2, Q8TBB1): 3.78; pKd (SCRIB_1, Q14160): 3.91; pKd (Inadl_8, Q8NI35): 4.16; pKd (FRMPD2_1, Q68DX3): below the threshold; pKd (GRIP2_4, Q9C0E4): below the threshold; pKd (DVL3, Q92997): 3.93; pKd (MPDZ_12, O75970): 4.69
RPGFASESKV [ADRB1, P08588]	below the threshold	below the threshold	4.35	below the threshold	3.7	below the threshold	below the threshold	3.64	below the threshold	3.62	3.61	3.66	4.04	4.59	below the threshold	below the threshold	below the threshold	below the threshold	below the threshold	5.01	pKd (LNX1_2, Q8TBB1): below the threshold; pKd (SCRIB_1, Q14160): 3.94; pKd (Inadl_8, Q8NI35): 3.73; pKd (FRMPD2_1, Q68DX3): below the threshold; pKd (GRIP2_4, Q9C0E4): below the threshold; pKd (DVL3, Q92997): below the threshold; pKd (MPDZ_12, O75970): below the threshold
